# Residue numbers refer to the chain shown, from its start.
# B1: Fab1 (Fab, V domains shown)
# VH: QMQLVESGGGVVQPGRSLRLSCAASGFTFRTYGMHWVRQAPGKGLEWVAVIWYDGSNKHYADSVKGRFTITRDNSKNTLNLQMNSLRAEDTAVYYCARAPQWELVHEAFDIWGQGTMVTVSS
# VL: SYVLTQPPSVSVAPGQTARITCGGNNLGSKSVHWYQQKPGQAPVLVVYDDSDRPSWIPERFSGSNSGNTATLTISRGEAGDEADYYCQVWDSSSDHVVFGGGTKLTVLG
# notes: CDRs of anti-TSLP mAb A5 (WO 2009/035577) cloned into an IgG1 Fab scaffold; also called anti-TSLP Fab; MEDI8630
# B2: Fab2 (Fab, V domains shown)
# VH: B1 VH
# VL: SYVLTQPPSVSVAPGQTARITCGGNNIGSKSVHWYQQKPGQAPVLVVYDDSDRPSWIPERFSGSNSGNTATLTISRGEAGDEADYYCQVWDSSSDHVVFGGGTKLTVL
# B3: Fab6 (Fab, V domains shown)
# VH: B1 VH
# VL: B2 VL with N25Q, I27L
# notes: Only the changed VL is printed
# B4: Fab8 (Fab, V domains shown)
# VH: B1 VH
# VL: B2 VL with I27L, S92T
# notes: as for B3
# B5: Fab3 (Fab, V domains shown)
# VH: B1 VH
# VL: B2 VL with I27V
# notes: as for B3
# B6: Fab5 (Fab, V domains shown)
# VH: B1 VH with G66A
# VL: B2 VL with I27L
# notes: Only the changed VH is printed
# B7: Fab4 (Fab, V domains shown)
# VH: B1 VH with D62E
# VL: B2 VL with I27L
# notes: as for B6
# B8: Fab9 (Fab, V domains shown)
# VH: B1 VH
# VL: B2 VL with I27L, S93T
# notes: as for B3
# B9: Fab7 (Fab, V domains shown)
# VH: B1 VH
# VL: B2 VL with N26Q, I27L
# notes: VL as labelled 'LIGHT CHAIN VL FAB7'
# B10: cyno TSLP (ligand, cynomolgus (cyno))
# chain: YDFTNCDFQKIEADYLRTISKDLITYMSGTKSTDFNNTVSCSNRPHCLTEIQSLTFNPTPRCASLAKEMFARKTKATLALWCPGYSETQINATQAMKKRRKRKVTTNKCLEQVSQLLGLWRRFIRTLLKKQ
# notes: As used in solution in the KinExA assay; also called Cynomolgus TSLP
# Legend:
# cyno TSLP = molecular target: B10; assay: KinExA, solution phase, global 1:1 fit
# [1] = molecular target: T1, N-terminally tagged biotinylated cyno TSLP (cynomolgus (cyno), UniProt A0A7N9CAT7 29-159, biotinylated (site not stated)); assay: SPR (Biacore 8K), biotinylated TSLP on streptavidin, Fab1 in flow, 1:1 Langmuir model
# T1 construct: Captured on streptavidin in the Biacore assay; also called Cynomolgus TSLP; recombinant mammalian cell-expressed cyno TSLP; not shown: N-terminal tag
# [2] = molecular target: T2, biotinylated His-Avi hu TSLP (human, UniProt Q969D9 29-159, biotinylated (site not stated)); assay: HTRF competition; competitor DyLight-labelled tezepelumab
# T2 construct: also called biotinylated TSLP; not shown: His-Avi tag
# Fab1 [3] = molecular target: B1; assay: KinExA, cyno TSLP titrated into 40 pM fixed Fab1 (open squares); free Fab1 captured on hu TSLP-coated beads
# Fab1 [4] = molecular target: B1; assay: KinExA, cyno TSLP titrated into 1000 pM fixed Fab1 (filled diamonds); free Fab1 captured on hu TSLP-coated beads
IC50 [2] [nM],Binder,other results
,B1,Kd (cyno TSLP): 0.0136 nM; Kd [1]: 0.0884 nM
0.29,B2,
0.32,B3,
0.29,B4,
0.24,B5,
0.42,B6,
0.36,B7,
0.29,B8,
0.24,B9,
,B10,IC50 (read off the curve) (Fab1 [3]): ~40 pM; IC50 (read off the curve) (Fab1 [4]): ~600 pM
